IntAct's records for PubMed 18325333

Target: cdk5_mouse Cdk5 (UniProt P49615)

Cyclin-dependent kinase 5 activator 1 (Mus musculus), P61809 D288A, sequence (P61809 whole entry D288A): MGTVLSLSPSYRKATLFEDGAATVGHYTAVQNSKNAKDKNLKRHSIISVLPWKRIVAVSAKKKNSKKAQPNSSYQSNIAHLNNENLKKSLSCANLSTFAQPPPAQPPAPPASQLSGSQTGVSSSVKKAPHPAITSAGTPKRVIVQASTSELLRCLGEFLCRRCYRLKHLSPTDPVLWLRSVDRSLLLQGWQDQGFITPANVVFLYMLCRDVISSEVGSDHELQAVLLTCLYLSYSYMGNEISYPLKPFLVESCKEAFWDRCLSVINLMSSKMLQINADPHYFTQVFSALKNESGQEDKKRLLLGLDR
Cyclin-dependent kinase 5 activator 1 (Mus musculus), P61809 L289A, sequence (P61809 whole entry L289A): as the sequence (P61809 whole entry D288A) above, with A288D, L289A counted along it

Row | effect of a mutation on the interaction | Substance
1 | disrupting interaction | Cyclin-dependent kinase 5 activator 1 (Mus musculus), P61809 D288A
2 | disrupting interaction | Cyclin-dependent kinase 5 activator 1 (Mus musculus), P61809 L289A
